# Data taken from IntAct's records for PubMed 10524631.
# B1: Phytochrome A (Arabidopsis thaliana (Mouse-ear cress)), P14712 (parent)
# chain: MSGSRPTQSSEGSRRSRHSARIIAQTTVDAKLHADFEESGSSFDYSTSVRVTGPVVENQPPRSDKVTTTYLHHIQKGKLIQPFGCLLALDEKTFKVIAYSENASELLTMASHAVPSVGEHPVLGIGTDIRSLFTAPSASALQKALGFGDVSLLNPILVHCRTSAKPFYAIIHRVTGSIIIDFEPVKPYEVPMTAAGALQSYKLAAKAITRLQSLPSGSMERLCDTMVQEVFELTGYDRVMAYKFHEDDHGEVVSEVTKPGLEPYLGLHYPATDIPQAARFLFMKNKVRMIVDCNAKHARVLQDEKLSFDLTLCGSTLRAPHSCHLQYMANMDSIASLVMAVVVNEEDGEGDAPDATTQPQKRKRLWGLVVCHNTTPRFVPFPLRYACEFLAQVFAIHVNKEVELDNQMVEKNILRTQTLLCDMLMRDAPLGIVSQSPNIMDLVKCDGAALLYKDKIWKLGTTPSEFHLQEIASWLCEYHMDSTGLSTDSLHDAGFPRALSLGDSVCGMAAVRISSKDMIFWFRSHTAGEVRWGGAKHDPDDRDDARRMHPRSSFKAFLEVVKTRSLPWKDYEMDAIHSLQLILRNAFKDSETTDVNTKVIYSKLNDLKIDGIQELEAVTSEMVRLIETATVPILAVDSDGLVNGWNTKIAELTGLSVDEAIGKHFLTLVEDSSVEIVKRMLENALEGTEEQNVQFEIKTHLSRADAGPISLVVNACASRDLHENVVGVCFVAHDLTGQKTVMDKFTRIEGDYKAIIQNPNPLIPPIFGTDEFGWCTEWNPAMSKLTGLKREEVIDKMLLGEVFGTQKSCCRLKNQEAFVNLGIVLNNAVTSQDPEKVSFAFFTRGGKYVECLLCVSKKLDREGVVTGVFCFLQLASHELQQALHVQRLAERTAVKRLKALAYIKRQIRNPLSGIMFTRKMIEGTELGPEQRRILQTSALCQKQLSKILDDSDLESIIEGCLDLEMKEFTLNEVLTASTSQVMMKSNGKSVRITNETGEEVMSDTLYGDSIRLQQVLADFMLMAVNFTPSGGQLTVSASLRKDQLGRSVHLANLEIRLTHTGAGIPEFLLNQMFGTEEDVSEEGLSLMVSRKLVKLMNGDVQYLRQAGKSSFIITAELAAANK
# partner: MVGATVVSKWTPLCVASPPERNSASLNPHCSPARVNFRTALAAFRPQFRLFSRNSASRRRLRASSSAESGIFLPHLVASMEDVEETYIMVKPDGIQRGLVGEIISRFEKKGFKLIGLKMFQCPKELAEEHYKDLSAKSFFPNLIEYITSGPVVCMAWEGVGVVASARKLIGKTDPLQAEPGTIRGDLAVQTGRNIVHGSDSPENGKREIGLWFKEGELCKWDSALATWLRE
# Variants of: B1
# Conditions: with ndk2_arath NDPK2, O64903
row,effect of a mutation on the interaction,Variant
1,decreasing interaction strength,G750E
2,decreasing interaction,G727E
